Laboratory results published in publication PMC5444859.

Experiments:
CASV L-Cterm = CASV L-Cterm (California Academy of Sciences virus …, UniProt J7HBG8 1721-2046); assay: EMSA; 5 mM MgCl2; 5 pmol protein, 0.4 pmol RNA; conditions: protein: recombinant; tags: N-terminal His-tag (pOPINF), removed by 3C protease; chain copies: 2; label: 32P in cap (alpha-32P-GTP); single strand
CASV L-Cterm domain 2 = CASV L-Cterm domain 2 (California Academy of Sciences virus …, UniProt J7HBG8 1794-1894); assay: EMSA; 5 mM MgCl2; 5 pmol protein, 0.4 pmol RNA; conditions: protein: recombinant; tags: N-terminal His-tag, removed by 3C protease; chain copies: 2; label: 32P in cap (alpha-32P-GTP); single strand

AAAAAAAAAAAAAAAAAAAAAAAAAAAAAAAAAAAAAAAA (ssRNA, 5' cap added with capping enzymes (Cellscript)) [capped polyA 40mer RNA]
binding result (CASV L-Cterm): no binding | binding result (CASV L-Cterm domain 2): no binding
